Results taken from US20060134087A1, “ITI-D1 Kunitz domain mutants as hNE inhibitors” (Dyax Corp., priority 1988, published 2006).
Where two headings read alike, the source gives them in different places. Ends that are not written are not given here.

Columns and labels:
[1] = target: T1, agarose-immobilized hNE beads (Homo sapiens, UniProt P08246); assay: pH fractionation of display phage on agarose-immobilized hNE beads; type: binding; conditions: range of the affinity class
T1 sequence (P08246 30-267): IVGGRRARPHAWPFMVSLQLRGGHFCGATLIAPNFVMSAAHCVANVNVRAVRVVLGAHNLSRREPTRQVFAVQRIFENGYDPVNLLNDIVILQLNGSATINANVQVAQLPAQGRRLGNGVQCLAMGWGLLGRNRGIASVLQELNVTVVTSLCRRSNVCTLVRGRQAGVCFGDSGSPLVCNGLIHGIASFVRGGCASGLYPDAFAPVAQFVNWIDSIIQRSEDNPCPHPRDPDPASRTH
Text: For the purpose of simultaneously assessing the affinity of a large number of different BPTI and ITI-D1 muteins, DNA sequences encoding the BPTI or ITI-D1 was incorporated into the genome of the bacteriophage M13. […] Alterations in the KuDom amino acid sequence were introduced. Each pure population of phage displaying a particular KuDom was characterized with regard to its interactions with immobilized hNE or hCG. Based on comparison to the pH elution profiles of phage displaying other KuDoms of known affinities for the particular protease, mutant KuDoms having high affinity for the target proteases were identified. Subsequently, the sequences of these mutant KuDoms were determined (typically by sequencing the corresponding DNA sequence).
To test if phage displaying the ITI-D1::III fusion protein interact strongly with the proteases human neutrophil elastase (hNE), aliquots of display phage were incubated with agarose-immobilized hNE beads (“hNE beads”). The beads were washed and bound phage eluted by pH fractionation as described in U.S. Pat. No. 5,223,409. The pHs used in the step gradient were 7.0, 6.0, 5.5, 5.0, 4.5, 4.0, 3.5, 3.0, 2.5, and 2.0. Following elution and neutralization, the various input, wash, and pH elution fractions were titered. Phage displaying ITI-D1 were compared to phage that display EpiNE-7.
To test if ITI-D1E7-display phage bind hNE beads, pH elution profiles were measured. Aliquots of EpiNE-7, MA-ITI-D1, and MA-ITI-D1E7 display phage were incubated with hNE beads for three hours at room temperature (RT). The beads were washed and phage were eluted as described in U.S. Pat. No. 5,223,409, except that only three pH elutions were performed. […] The pH elution profile of EpiNE-7 display phage is as described. MA-ITI-D1E7 phage show a broad elution maximum around pH 5. The total fraction of MA-ITI-D1E7 phage obtained on pH elution from hNE beads was about 40-fold less than that obtained using EpiNE-7 display phage.
We characterized the binding properties to hNE-beads of MA-BITI and MA-BITI-E7 display phage using the extended pH fractionation procedure described in U.S. Pat. No. 5,223,409.
The binding capacity of hNE-beads for display phage varies among preparations of beads and with age for each individual preparation of beads. Thus, it is difficult to directly compare absolute yields of phage from elutions performed at different times. For example, the fraction of MA-EpiNE7 display phage recovered from hNE-beads varies two-fold among the experiments shown in Tables 14, 16, and 17. However, the shapes of the pH elution profiles are similar. It is possible to correct somewhat for variations in binding capacity of hNE-beads by normalizing display phage yields to the total yield of MA-EpiNE7 phage recovered from the beads in a concurrent elution. When the data shown in Tables 14, 16, and 17 are so normalized, the recoveries of display phage, relative to recovered MA-EpiNE7, are shown in Table 3.
ITI-D1 derivative BITI-E7-1222 is BITI-E7 with the alteration A11T. ITI-D1 derivative BITI-E7-141 is BITI-E7 with the alterations E31Q and Q34V; phage that display the presence of these proteins are MA-BITI-E7-1222 and MA-BITI-E7-141. We determined the binding properties to hNE-beads of MA-BITI-E7-1222 and MA-BITI-E7-141 display phage using the extended pH fractionation protocol described previously. The results are in Tables 18 (for MA-BITI-E7 and MA-BITI-E7-1222) and 19 (for MA-EpiNE7 and MA-BITI-E7-141). The pH elution profiles for the MA-BITI-E7 and MA-BITI-E7-1222 phage are almost identical.
Total pfu applied to the beads are in column two. The fractions of this input pfu recovered in each pH fraction of the abbreviated pH elution protocol (pH 7.0, pH 3.5, and pH 2.0) are in the next three columns. […]

[2] = target: T2, human neutrophil elastase (hNE) (Homo sapiens, UniProt P08246); conditions: ALBR83a,b, ODOM90, cited from earlier work
T2 sequence (P08246 30-267): T1 sequence (P08246 30-267)

trypsin = conditions: literature; cited from earlier work
chymotrypsin = conditions: literature; cited from earlier work
plasmin = plasmin (Homo sapiens, UniProt P00747); conditions: literature; cited from earlier work
plasmin, sequence (P00747 581-810 limits assumed, species assumed): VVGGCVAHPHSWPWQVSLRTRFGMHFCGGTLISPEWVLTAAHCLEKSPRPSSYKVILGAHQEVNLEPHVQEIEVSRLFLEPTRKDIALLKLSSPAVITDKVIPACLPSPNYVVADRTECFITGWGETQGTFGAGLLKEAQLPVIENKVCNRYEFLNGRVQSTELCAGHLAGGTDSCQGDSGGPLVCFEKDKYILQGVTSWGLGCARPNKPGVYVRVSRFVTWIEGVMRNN
plasmin, sequence (P00747 97-580 partner limits assumed, species assumed): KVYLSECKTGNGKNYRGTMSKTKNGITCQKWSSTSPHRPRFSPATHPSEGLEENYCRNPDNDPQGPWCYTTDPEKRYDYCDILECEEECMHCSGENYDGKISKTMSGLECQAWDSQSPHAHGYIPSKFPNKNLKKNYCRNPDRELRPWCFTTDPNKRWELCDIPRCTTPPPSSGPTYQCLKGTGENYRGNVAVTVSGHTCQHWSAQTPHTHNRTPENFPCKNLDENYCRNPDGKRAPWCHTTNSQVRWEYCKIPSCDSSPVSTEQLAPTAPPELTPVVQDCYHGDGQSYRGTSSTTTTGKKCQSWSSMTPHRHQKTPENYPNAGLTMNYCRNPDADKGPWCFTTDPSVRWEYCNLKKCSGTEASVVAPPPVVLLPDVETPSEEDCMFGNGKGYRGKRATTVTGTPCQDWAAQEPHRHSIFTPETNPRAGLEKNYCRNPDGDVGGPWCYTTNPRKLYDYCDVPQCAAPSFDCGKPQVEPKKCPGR

Fraction of Input bound [1]: <0.005% | pH Elution Maximum [1]: >6.0 pH
Substance: ITI-D1: first Kunitz domain of human inter-α-trypsin inhibitor light chain, SEQ ID NO 016 (KEDSCQLGYSAGPCMGMTSRYFYNGTSMACETFQYGGCMGNGNNFVTEKDCLQTCRTV; disulfide (positions not given here); also: disulfides drawn as lines in table, pairing not given here)
Ki ([2]; read-out: Ki for leukocyte elastase, lower limit): > 1 nM | Ki ([2]; read-out: Ki for leukocyte elastase, upper limit): < 1000 nM | affinity for / inhibition of trypsin (trypsin): lacks affinity | affinity for chymotrypsin (chymotrypsin): lacks affinity | affinity for plasmin (plasmin): lacks affinity
